Laboratory results from the supplement of paper PMC7877785.
± gives the uncertainty stated by the source.

Experiment: self-splicing fitness, log relative to wild type (ln ratio); higher = more splicing; Tetrahymena group I intron in knt gene, E. coli kanamycin selection, DiMSum; sequences stand for … in CUCUCU…GGAGGGAAAAGUUAUCAGGCAUGCACCUGGUAGCUAGUCUUUAAACCAAUAGAUUGCAUCGGUUUAAAAGGCAAGACCGUCAAAUUGCGGGAAAGGGGUCAACAGCCGUUCAGUACCAAGUCUCAGGGGAAACUUUGAGAUGGCCUUGCAAAGGGUAUGGUAAUAAGCUGACGGACAUGGUCCUAACCACGCAGCCAAGUCCUAAGUCAACAGAUCUUCUGUUGAUAUGGAUGCAGUUCACAGACUAAAUGUCGGUCGGGGAAGAUGUAUUCUUCUCAUAAGAUAUAGUCGGACCUCUCCUUAAUGGGAGCUAGCGGAUGAAGUGAUGCAACACUGGAGCCGCUGGGAACUAAUUUGUAUGCGAAAGUAUAUUGAUUAGUUUUGGAGUACUCGUGGUCG
How it was run: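 DiMSum derived fitness as the error-weighted combination of fold changes across replicates, kanamycin versus no kanamycin, normalised to wild type. E. coli BL21(DE3) held the library, which randomised all eight P1ex-region intron nucleotides within the knt kanamycin-resistance gene on pET-22b(+). Six replicate transformations grew overnight at 37°C or 30°C on LB agar with or without 25 μg/mL kanamycin, also containing 100 μg/mL carbenicillin, 50 μM IPTG and 0.2% rhamnose, and pooled colonies were amplicon-sequenced on an Illumina HiSeq 2500.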

| Sequence | self-splicing fitness (ln) (30 °C) | self-splicing fitness (ln) (37 °C) |
| --- | --- | --- |
| UUCCAGCAAUAUUACGUGGG | -3.68 ± 0.18 | -2.56 ± 0.16 |
| UUCCAGCAAUAUUACGUUAC | -3.45 ± 0.43 | -2.57 ± 0.25 |
| UUCGAGCAAUAUUACGAACG | -2.89 ± 0.29 | -0.783 ± 0.33 |
| UUCGAGCAAUAUUACGACAG | -2.81 ± 0.19 | -1.5 ± 0.13 |
| UUCGAGCAAUAUUACGAUGC | -1.44 ± 0.4 |  |
| UUCGAGCAAUAUUACGCAAG | -1.98 ± 0.4 | -1.66 ± 0.48 |
| UUCGAGCAAUAUUACGCCGA | -2.65 ± 0.22 | -2.66 ± 0.33 |
| UUCGAGCAAUAUUACGCCUU | -3.09 ± 0.26 | -1.64 ± 0.26 |
| UUCGAGCAAUAUUACGCUAG | -2.82 ± 0.26 | -2.05 ± 0.42 |
| UUCGAGCAAUAUUACGGACA | -2.7 ± 0.22 | -1.79 ± 0.17 |
| UUCGAGCAAUAUUACGGAUA | -2.76 ± 0.28 | -2.08 ± 0.25 |
| UUCGAGCAAUAUUACGGUAA | -1.85 ± 0.25 | -1.55 ± 0.19 |
| UUCGAGCAAUAUUACGGUCU | -5 ± 0.38 | -5.45 ± 0.36 |
| UUCGAGCAAUAUUACGUACA | -2.27 ± 0.22 | -1.81 ± 0.15 |
| UUCGAGCAAUAUUACGUAGU | -2.91 ± 0.29 | -0.98 ± 0.25 |
| UUCGAGCAAUAUUACGUCAG | -3.92 ± 0.43 | 0.987 ± 0.26 |
| UUCGAGCAAUAUUACGUCAU | -2.56 ± 0.21 | -3.46 ± 0.46 |
| UUCGAGCAAUAUUACGUGUA | -2.65 ± 0.09 | -1.86 ± 0.095 |
| UUCUAGCAAUAUUACGACCU | -0.905 ± 0.42 | -2.63 ± 0.44 |
| UUCUAGCAAUAUUACGACGG | -1.31 ± 0.1 | -1.77 ± 0.15 |
| UUCUAGCAAUAUUACGACUU | -1.77 ± 0.24 | -1.59 ± 0.19 |
| UUCUAGCAAUAUUACGAUGU | -3.53 ± 0.42 | -1.66 ± 0.2 |
| UUCUAGCAAUAUUACGCAUC | -2.33 ± 0.42 | -0.769 ± 0.29 |
| UUCUAGCAAUAUUACGCAUG | -3.42 ± 0.16 | -2.01 ± 0.18 |
| UUCUAGCAAUAUUACGCCGU | -2.06 ± 0.46 | -0.835 ± 0.34 |

| Sequence | self-splicing fitness (ln) (30 °C) | self-splicing fitness (ln) (37 °C) |
| --- | --- | --- |
| UUCUAGCAAUAUUACGCCUA | -1.94 ± 0.29 | -0.0729 ± 0.19 |
| UUCUAGCAAUAUUACGCGCA | -0.451 ± 0.088 | -0.191 ± 0.097 |
| UUCUAGCAAUAUUACGCGUG | -2.22 ± 0.12 | -0.708 ± 0.1 |
| UUCUAGCAAUAUUACGCUAG | -3.41 ± 0.23 | -2.42 ± 0.41 |
| UUCUAGCAAUAUUACGGCAG | 0.185 ± 0.42 | -0.821 ± 0.39 |
| UUCUAGCAAUAUUACGGCGG | -2.93 ± 0.16 | -1.28 ± 0.13 |
| UUCUAGCAAUAUUACGUACC |  | -0.136 ± 0.48 |
| UUCUAGCAAUAUUACGUAGG | -2.25 ± 0.24 | -0.645 ± 0.31 |
| UUCUAGCAAUAUUACGUCAG | -3.16 ± 0.37 | -1.75 ± 0.26 |
| UUCUAGCAAUAUUACGUCCU | -1.87 ± 0.38 | -2.91 ± 0.36 |
| UUCUAGCAAUAUUACGUCUU | -3.03 ± 0.29 | -2.26 ± 0.23 |
| UUGAAGCAAUAUUACGACGC | -0.722 ± 0.11 | 0.156 ± 0.14 |
| UUGAAGCAAUAUUACGACUA | 0.321 ± 0.098 | 0.141 ± 0.11 |
| UUGAAGCAAUAUUACGAUAC | -2.62 ± 0.2 | -2.62 ± 0.26 |
| UUGAAGCAAUAUUACGAUAG | 0.155 ± 0.071 | 0.398 ± 0.095 |
| UUGAAGCAAUAUUACGCCAA | -0.371 ± 0.094 | -0.324 ± 0.11 |
| UUGAAGCAAUAUUACGCCCU | -0.0294 ± 0.13 | 0.698 ± 0.16 |
| UUGAAGCAAUAUUACGCGAA | -0.789 ± 0.08 | -0.585 ± 0.093 |
| UUGAAGCAAUAUUACGCGCA | 0.548 ± 0.12 | 0.381 ± 0.12 |
| UUGAAGCAAUAUUACGCGGG | -1.95 ± 0.1 | -0.668 ± 0.12 |
| UUGAAGCAAUAUUACGCGUU | -3.35 ± 0.15 | -0.906 ± 0.12 |
| UUGAAGCAAUAUUACGCUAG | -0.524 ± 0.19 | -0.328 ± 0.17 |
| UUGAAGCAAUAUUACGGCGC | -2.04 ± 0.17 | -0.68 ± 0.19 |
| UUGAAGCAAUAUUACGGCUC | -3.8 ± 0.25 | -1.42 ± 0.19 |
| UUGAAGCAAUAUUACGGGUC | -3.77 ± 0.25 | -1.71 ± 0.25 |

| Sequence | self-splicing fitness (ln) (30 °C) | self-splicing fitness (ln) (37 °C) |
| --- | --- | --- |
| UUGAAGCAAUAUUACGUAAG | -0.735 ± 0.083 | 0.223 ± 0.12 |
| UUGAAGCAAUAUUACGUACG | -0.166 ± 0.053 | 0.427 ± 0.074 |
| UUGAAGCAAUAUUACGUAUU | -2.69 ± 0.12 | -0.933 ± 0.12 |
| UUGAAGCAAUAUUACGUCAG | 0.252 ± 0.076 | 0.934 ± 0.11 |
| UUGAAGCAAUAUUACGUUCG | -0.397 ± 0.065 | 0.0406 ± 0.088 |
| UUGAAGCAAUAUUACGUUUG | -1.6 ± 0.12 | -0.811 ± 0.19 |
| UUGCAGCAAUAUUACGAACC | -1.76 ± 0.45 |  |
| UUGCAGCAAUAUUACGACCC |  | -0.535 ± 0.4 |
| UUGCAGCAAUAUUACGACUC | -1.2 ± 0.11 | -0.0756 ± 0.12 |
| UUGCAGCAAUAUUACGAGCU | -2.6 ± 0.1 | -1.37 ± 0.11 |
| UUGCAGCAAUAUUACGAGGC | -3.55 ± 0.23 | -2.07 ± 0.22 |
| UUGCAGCAAUAUUACGAUAG | -0.692 ± 0.079 | 0.225 ± 0.11 |
| UUGCAGCAAUAUUACGAUCA | -1.37 ± 0.12 | -0.0311 ± 0.11 |
| UUGCAGCAAUAUUACGAUGC | -3.16 ± 0.46 | -1.54 ± 0.45 |
| UUGCAGCAAUAUUACGCAAG | -1.92 ± 0.16 | -2.89 ± 0.36 |
| UUGCAGCAAUAUUACGCAUC | -3.11 ± 0.22 | -3.18 ± 0.33 |
| UUGCAGCAAUAUUACGCCCA | -1.28 ± 0.21 | -0.155 ± 0.25 |
| UUGCAGCAAUAUUACGCCUU | -0.0132 ± 0.081 | 0.15 ± 0.11 |
| UUGCAGCAAUAUUACGCGAU | -2.02 ± 0.29 | -2.6 ± 0.36 |
| UUGCAGCAAUAUUACGCGUA | -0.889 ± 0.13 | -0.457 ± 0.11 |
| UUGCAGCAAUAUUACGCUAU | -2.99 ± 0.25 | -1.16 ± 0.17 |
| UUGCAGCAAUAUUACGCUCU | -1.01 ± 0.12 | -0.306 ± 0.13 |
| UUGCAGCAAUAUUACGCUUA | -0.263 ± 0.12 | -0.0443 ± 0.13 |
| UUGCAGCAAUAUUACGGCGU | -0.34 ± 0.051 | 0.352 ± 0.065 |
| UUGCAGCAAUAUUACGGGGA | -1.37 ± 0.13 | -0.636 ± 0.12 |

| Sequence | self-splicing fitness (ln) (30 °C) | self-splicing fitness (ln) (37 °C) |
| --- | --- | --- |
| UUGCAGCAAUAUUACGGGGC | -3.99 ± 0.2 | -2.35 ± 0.2 |
| UUGCAGCAAUAUUACGGUAG | -0.823 ± 0.057 | -0.064 ± 0.07 |
| UUGCAGCAAUAUUACGUAAA | -1.25 ± 0.095 | -0.427 ± 0.12 |
| UUGCAGCAAUAUUACGUACA | 0.118 ± 0.11 | -0.0402 ± 0.13 |
| UUGCAGCAAUAUUACGUACU | -1.36 ± 0.12 | -0.848 ± 0.12 |
| UUGCAGCAAUAUUACGUAGC | -2.96 ± 0.3 |  |
| UUGCAGCAAUAUUACGUCUC | -1.21 ± 0.12 | -0.311 ± 0.16 |
| UUGCAGCAAUAUUACGUGAU | -3.85 ± 0.2 | -2.06 ± 0.17 |
| UUGCAGCAAUAUUACGUGGA | -2.52 ± 0.18 | -1.27 ± 0.13 |
| UUGCAGCAAUAUUACGUUCC |  | -2.16 ± 0.27 |
| UUGCAGCAAUAUUACGUUUU | -3.97 ± 0.22 | -1.85 ± 0.13 |
| UUGGAGCAAUAUUACGAACG |  | -0.295 ± 0.28 |
| UUGGAGCAAUAUUACGACAU | -1.81 ± 0.02 | -1.04 ± 0.036 |
| UUGGAGCAAUAUUACGAUGG | -1.53 ± 0.21 | -1.54 ± 0.21 |
| UUGGAGCAAUAUUACGCAGG | -2.96 ± 0.28 | -1.99 ± 0.33 |
| UUGGAGCAAUAUUACGCGUG | -3.03 ± 0.18 | -0.323 ± 0.087 |
| UUGGAGCAAUAUUACGGAUG | -3.54 ± 0.34 | -2.12 ± 0.4 |
| UUGGAGCAAUAUUACGGCGA | -1.32 ± 0.48 |  |
| UUGGAGCAAUAUUACGGUAG | -3.58 ± 0.2 | -1.99 ± 0.18 |
| UUGGAGCAAUAUUACGUCGA | -2.6 ± 0.3 | 0.049 ± 0.27 |
| UUGGAGCAAUAUUACGUGGU | -2.84 ± 0.36 | -2.56 ± 0.32 |
| UUGGAGCAAUAUUACGUGUA | -3.69 ± 0.29 |  |
| UUGGAGCAAUAUUACGUUAU | -2.79 ± 0.28 | -0.885 ± 0.26 |
